B1: GpH7-A5/GpH7-B3 variant K326_20W/GpL16-k0 (antibody, human IgG1, kappa)
heavy 1: not shown
heavy 2: not shown
light: DIVMTQSPLSLPVTPGEPASISCQASESLVHSNRNTYLHWYLQKPGQSPQLLIYKVSNRFSGVPDRFSGSGSGTDFTLKISRVEAEDVGVYYCSQNTHVPPTFGQGTKVEIERTVAAPSVFIFPPSDEQLKSGTASVVCLLNNFYPREAKVQWKVDNALQSGNSQESVTEQDSKDSTYSLSSTLTLSKADYEKHKVYACEVTHQGLSSPVTKSFNRGEC
notes: IgG1, anti-glypican-3; also called He Ab
B2: GpH7-A5/GpH7-B3 variant S239_07I/GpL16-k0 (antibody, human IgG1, kappa)
heavy 1: not shown
heavy 2: not shown
light: B1 light
notes: as for B1
B3: GpH7-A5/GpH7-B3 variant P238_08L/GpL16-k0 (antibody, human IgG1, kappa)
heavy 1: not shown
heavy 2: not shown
light: B1 light
notes: as for B1
B4: GpH7-A5/GpH7-B3 variant S267_06M/GpL16-k0 (antibody, human IgG1, kappa)
heavy 1: not shown
heavy 2: not shown
light: B1 light
notes: as for B1
B5: GpH7-A5/GpH7-B3 variant S267_03V/GpL16-k0 (antibody, human IgG1, kappa)
heavy 1: not shown
heavy 2: not shown
light: B1 light
notes: as for B1
B6: GpH7-A5/GpH7-B3 variant S239_08L/GpL16-k0 (antibody, human IgG1, kappa)
heavy 1: not shown
heavy 2: not shown
light: B1 light
notes: as for B1
B7: GpH7-A5/GpH7-B3 variant P238_19Q/GpL16-k0 (antibody, human IgG1, kappa)
heavy 1: not shown
heavy 2: not shown
light: B1 light
notes: as for B1
B8: GpH7-A5/GpH7-B3 variant P238_16H/GpL16-k0 (antibody, human IgG1, kappa)
heavy 1: not shown
heavy 2: not shown
light: B1 light
notes: as for B1
B9: GpH7-A5/GpH7-B3 variant S239_01G/GpL16-k0 (antibody, human IgG1, kappa)
heavy 1: not shown
heavy 2: not shown
light: B1 light
notes: as for B1
B10: GpH7-A5/GpH7-B3 variant N325_01G/GpL16-k0 (antibody, human IgG1, kappa)
heavy 1: not shown
heavy 2: not shown
light: B1 light
notes: as for B1
B11: GpH7-A5/GpH7-B3 variant S267_10E/GpL16-k0 (antibody, human IgG1, kappa)
heavy 1: not shown
heavy 2: not shown
light: B1 light
notes: as for B1
B12: GpH7-A5/GpH7-B3 variant P271_10E/GpL16-k0 (antibody, human IgG1, kappa)
heavy 1: not shown
heavy 2: not shown
light: B1 light
notes: as for B1
B13: GpH7-A5/GpH7-B3 variant S239_06M/GpL16-k0 (antibody, human IgG1, kappa)
heavy 1: not shown
heavy 2: not shown
light: B1 light
notes: as for B1
B14: GpH7-A5/GpH7-B3 variant P271_09D/GpL16-k0 (antibody, human IgG1, kappa)
heavy 1: not shown
heavy 2: not shown
light: B1 light
notes: as for B1
B15: GpH7-A5/GpH7-B3 variant P238_06M/GpL16-k0 (antibody, human IgG1, kappa)
heavy 1: not shown
heavy 2: not shown
light: B1 light
notes: as for B1
B16: GpH7-A5/GpH7-B3 variant P238_03V/GpL16-k0 (antibody, human IgG1, kappa)
heavy 1: not shown
heavy 2: not shown
light: B1 light
notes: as for B1
B17: GpH7-A5/GpH7-B3 variant S239_03V/GpL16-k0 (antibody, human IgG1, kappa)
heavy 1: not shown
heavy 2: not shown
light: B1 light
notes: as for B1
B18: GpH7-A5/GpH7-B3 variant S267_08L/GpL16-k0 (antibody, human IgG1, kappa)
heavy 1: not shown
heavy 2: not shown
light: B1 light
notes: as for B1
B19: GpH7-A5/GpH7-B3 variant P238_15Y/GpL16-k0 (antibody, human IgG1, kappa)
heavy 1: not shown
heavy 2: not shown
light: B1 light
notes: as for B1
B20: GpH7-A5/GpH7-B3 variant L235_09D/GpL16-k0 (antibody, human IgG1, kappa)
heavy 1: not shown
heavy 2: not shown
light: B1 light
notes: as for B1
B21: GpH7-A5/GpH7-B3 variant S298_06M/GpL16-k0 (antibody, human IgG1, kappa)
heavy 1: not shown
heavy 2: not shown
light: B1 light
notes: as for B1
B22: GpH7-A5/GpH7-B3 variant S267_01G/GpL16-k0 (antibody, human IgG1, kappa)
heavy 1: not shown
heavy 2: not shown
light: B1 light
notes: as for B1
B23: GpH7-A5/GpH7-B3 variant V266_06M/GpL16-k0 (antibody, human IgG1, kappa)
heavy 1: not shown
heavy 2: not shown
light: B1 light
notes: as for B1
B24: GpH7-A5/GpH7-B3 variant S267_07I/GpL16-k0 (antibody, human IgG1, kappa)
heavy 1: not shown
heavy 2: not shown
light: B1 light
notes: as for B1
B25: GpH7-A5/GpH7-B3 variant S239_05P/GpL16-k0 (antibody, human IgG1, kappa)
heavy 1: not shown
heavy 2: not shown
light: B1 light
notes: as for B1
B26: GpH7-A5/GpH7-B3 variant P271_08L/GpL16-k0 (antibody, human IgG1, kappa)
heavy 1: not shown
heavy 2: not shown
light: B1 light
notes: as for B1
B27: GpH7-A5/GpH7-B3 variant S267_14T/GpL16-k0 (antibody, human IgG1, kappa)
heavy 1: not shown
heavy 2: not shown
light: B1 light
notes: as for B1
B28: GpH7-A5/GpH7-B3 variant S298_08L/GpL16-k0 (antibody, human IgG1, kappa)
heavy 1: not shown
heavy 2: not shown
light: B1 light
notes: as for B1
B29: GpH7-A5/GpH7-B3 variant P238_20W/GpL16-k0 (antibody, human IgG1, kappa)
heavy 1: not shown
heavy 2: not shown
light: B1 light
notes: as for B1
B30: GpH7-A5/GpH7-B3 variant P238_04F/GpL16-k0 (antibody, human IgG1, kappa)
heavy 1: not shown
heavy 2: not shown
light: B1 light
notes: as for B1
B31: GpH7-A5/GpH7-B3 variant Y300_19Q/GpL16-k0 (antibody, human IgG1, kappa)
heavy 1: not shown
heavy 2: not shown
light: B1 light
notes: as for B1
B32: GpH7-A5/GpH7-B3 variant S267_19Q/GpL16-k0 (antibody, human IgG1, kappa)
heavy 1: not shown
heavy 2: not shown
light: B1 light
notes: as for B1

Among the data in patent US20150344570A1 (published 2015) are He/Con_2b and He/Con_3a values, retold here.

T2 sequence (P08637 17-208): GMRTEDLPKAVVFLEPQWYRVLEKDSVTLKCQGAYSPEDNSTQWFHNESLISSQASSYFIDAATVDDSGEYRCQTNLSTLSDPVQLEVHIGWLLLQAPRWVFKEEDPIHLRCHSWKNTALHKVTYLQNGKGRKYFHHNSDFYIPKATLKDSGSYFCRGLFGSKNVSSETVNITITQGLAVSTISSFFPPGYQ

The first test concerns the target T1, FcγRIIb extracellular domain with C-terminal His tag (human, UniProt P31994 43-217).
T1 construct: extracellular domain; also called 2b; FcgRIIb; not shown: His tag at the C terminus
T1 sequence (looked up): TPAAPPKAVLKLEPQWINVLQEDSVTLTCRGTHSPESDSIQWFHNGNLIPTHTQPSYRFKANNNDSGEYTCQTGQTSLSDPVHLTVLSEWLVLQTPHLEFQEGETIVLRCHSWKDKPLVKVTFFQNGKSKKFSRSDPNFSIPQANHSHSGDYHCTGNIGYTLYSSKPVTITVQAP
Nature of the test: SPR (Biacore), relative to GpH7-A5/GpH7-B3/GpL16-k0 = 100. A general note: SPR reads the build-up and loss of mass on a sensor chip optically.
As to B1, the He/Con_2b is 148 % (control = 100).

Consider B2, for which the He/Con_2b was 107 % (control = 100).

In the case of B3, the He/Con_2b was 204 % (control = 100).

Regarding B4, the He/Con_2b was 210 % (control = 100).

Consider B5, for which the He/Con_2b was 192 % (control = 100).

Take B6: the He/Con_2b was 140 % (control = 100).

In the case of B7, the He/Con_2b is 110 % (control = 100).

For B8, the He/Con_2b is 115 % (control = 100).

Regarding B9, the He/Con_2b is 144 % (control = 100).

For B10, the He/Con_2b was 101 % (control = 100).

Take B11: the He/Con_2b was 379 % (control = 100).

On to B12, for which the He/Con_2b was 109 % (control = 100).

Regarding B13, the He/Con_2b was 101 % (control = 100).

Regarding B14, the He/Con_2b was 120 % (control = 100).

Consider B15, for which the He/Con_2b was 174 % (control = 100).

Turning to B16, the He/Con_2b was 120 % (control = 100).

As to B17, the He/Con_2b was 108 % (control = 100).

With B18, the He/Con_2b was 109 % (control = 100).

On to B19, for which the He/Con_2b was 218 % (control = 100).

Regarding B20, the He/Con_2b was 106 % (control = 100).

In the case of B21, the He/Con_2b is 102 % (control = 100).

With B22, the He/Con_2b was 105 % (control = 100).

For the molecule B23, the He/Con_2b was 251 % (control = 100).

In the case of B24, the He/Con_2b is 192 % (control = 100).

Take B25: the He/Con_2b was 102 % (control = 100).

Regarding B26, the He/Con_2b is 103 % (control = 100).

B27: the He/Con_2b was 104 % (control = 100).

For B28, the He/Con_2b is 108 % (control = 100).

On to B29, for which the He/Con_2b was 123 % (control = 100).

Regarding B30, the He/Con_2b is 312 % (control = 100).

Consider B31, for which the He/Con_2b was 108 % (control = 100).

Take B32: the He/Con_2b was 218 % (control = 100).

Another test concerns the target T2, FcγRIIIa extracellular domain with C-terminal His tag (human, UniProt P08637 17-208).
T2 construct: extracellular domain; also called 3a; FcgRIIIa; not shown: His tag at the C terminus
The description is as above.
B1: the He/Con_3a was 84.8 % (control = 100).

Regarding B2, the He/Con_3a was 79.3 % (control = 100).

Consider B3, for which the He/Con_3a is 75.5 % (control = 100).

On to B4, for which the He/Con_3a is 66 % (control = 100).

With B5, the He/Con_3a was 30.8 % (control = 100).

For the molecule B6, the He/Con_3a is 95.3 % (control = 100).

Turning to B7, the He/Con_3a is 55.8 % (control = 100).

For the molecule B8, the He/Con_3a is 30.7 % (control = 100).

With B9, the He/Con_3a is 76.2 % (control = 100).

Take B10: the He/Con_3a is 28 % (control = 100).

Regarding B11, the He/Con_3a was 91.9 % (control = 100).

As to B12, the He/Con_3a is 93.6 % (control = 100).

For the molecule B13, the He/Con_3a is 78.2 % (control = 100).

For B14, the He/Con_3a was 93.1 % (control = 100).

On to B15, for which the He/Con_3a was 30.5 % (control = 100).

On to B16, for which the He/Con_3a is 43.8 % (control = 100).

As to B17, the He/Con_3a is 76.6 % (control = 100).

On to B18, for which the He/Con_3a is 19.5 % (control = 100).

Regarding B19, the He/Con_3a is 64.5 % (control = 100).

As to B20, the He/Con_3a is 91.6 % (control = 100).

In the case of B21, the He/Con_3a was 92.6 % (control = 100).

Turning to B22, the He/Con_3a is 53.8 % (control = 100).

B23: the He/Con_3a was 85.8 % (control = 100).

For B24, the He/Con_3a was 25.2 % (control = 100).

As for B25, the He/Con_3a is 14.9 % (control = 100).

For B26, the He/Con_3a was 71 % (control = 100).

B27: the He/Con_3a is 45.6 % (control = 100).

Turning to B28, the He/Con_3a was 73.5 % (control = 100).

Consider B29, for which the He/Con_3a is 49.7 % (control = 100).

As for B30, the He/Con_3a is 46.7 % (control = 100).

For the molecule B31, the He/Con_3a is 96.3 % (control = 100).

Regarding B32, the He/Con_3a was 65 % (control = 100).
